Biological target: p27^Kip1–His6 (UniProt P46527)
UniProt P46527, sequence (P46527 whole entry): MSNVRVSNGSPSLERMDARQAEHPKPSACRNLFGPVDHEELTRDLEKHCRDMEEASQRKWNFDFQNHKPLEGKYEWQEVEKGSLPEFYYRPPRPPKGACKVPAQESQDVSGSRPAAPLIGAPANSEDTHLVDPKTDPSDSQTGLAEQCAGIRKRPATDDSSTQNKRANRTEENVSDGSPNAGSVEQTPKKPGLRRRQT

in vitro degradation of purified p27^Kip1–His6 (1 μg) by purified β1–His6 (2 μg) at 37°C, immunoblot, time course up to 90 min: 40%
Substance: β1–His6 (full-length β1, wild type) (from UniProt P28072 1-239) (enzyme)
